According to patent US20050002904A1, “Uses of vascular endothelial growth factor and type I collagen inducible protein (VCIP)” (priority 2003, published 2005):
Where no end group is shown, it is not given here.

Columns and labels:
α2β1 integrin = α2β1 integrin (Homo sapiens, UniProt P05556+P17301); assay: Solid phase ligand binding assay (ELISA); conditions: immobilized integrin, GST-fusion ligand in solution
Description: (§1) FIG. 10A: Affinity purified GST-fusion proteins were resolved on SDS±PAGE and stained with Coomassie Blue. FIG. 10B: Integrins were immobilized onto 96-well plates, and various GST-fusion proteins (ligands) were allowed to bind. Bound ligands were incubated with anti-GST antibodies, appropriate substrate added and the color intensity measured. OD values <0.05 were considered to be background binding. Data are expressed as mean±SD (n=4). FIG. 10C: Dose-dependent binding of αvβ3 integrin with recombinant GST-VCIP-RGD. FIGS. 10D-F: Representative photomicrographs of adhesion and spreading of endothelial cells replated onto dishes coated with either […]. Cells were allowed to attach for 45 min, washed with PBS and stained with H&E. Magnification, 100×. Bar, 25 μm. FIG. 10G: Adhesion blocking assays. Endothelial cells were replated onto dishes coated with increasing concentrations of affinity purified fusion proteins (1, 5 and 10 nM). Attached cells were stained, washed and absorbances of eluted dyes measured. To determine the effects of anti-integrin antibodies, dishes were coated with 10 nM GST-VCIP-RGD. Endothelial cells were pre-incubated at 4° C. with increasing concentrations of anti-α5β1 (P1D6), anti-αvβ3 (LM609), anti-α2β1 (MAB 1998) and anti-α3β1 (P1B5) monoclonal antibodies (1, 5 and 10 μg/ml) for 30 min, then washed and replated onto coated dishes. Attached cells were stained, washed and absorbances of eluted dyes determined. Three independent experiments were performed with several replicate samples in each experiment. Data are expressed as mean±S.D.; diamond, P<0.01; asterisk, P<0.001. FIG. 10H: Clarified extracts prepared from [^35S]Cys/Met-labeled HdMVEC were pre-adsorbed and incubated with GST-VCIP-RGD in the absence (−) or presence (+) of GRGDSP peptide (lanes 1 and 2). The presence of αvβ3 and α5β1 integrins (lanes 5 and 6) in GST-VCIP pull-down complex (lane 1) was confirmed by incubating aliquots of dissociated complex with the indicated antibodies. Anti-mouse IgG was included as negative control (lane 3).
(§2) Solid phase ligand binding assays were performed according to a previously published procedure (Orlando and Cheresh, 1991). Briefly, soluble α2β1, α5β1, αvβv3 and αvβ5 integrins (1 μg/ml in a solution containing 20 mM Tris pH 7.4, 150 mM NaCl, 1 mM CaCl2, 1 mM MgCl2 and 1 mM MnCl2) were immobilized onto 96-well microtiter plates at 4° C. Wells were washed and blocked with 0.5% BSA. After washing, GST, GST-VCIP-RGD and GST-VCIP-RGE ligands were added (50-350 ng per well in a solution of TBS pH 7.4) and incubated at 37° C. for 1 h. After washing, the wells were incubated with the anti-GST (sc-138, Santa Cruz) monoclonal antibody for 1 h, followed by washing and incubation with a horseradish peroxidase (HRP)-conjugated mouse secondary antibody. Plates were then washed again and the ABTS substrate (Bio-Rad) was added. All washing steps were carried out using PBS. Absorbances were read at 405 nm, and non-specific binding values were adjusted against BSA.
(§3) To determine whether GST-VCIP-RGD could interact with various integrins, a solid-phase ligand binding assay was performed.

α5β1 integrin = α5β1 integrin (Homo sapiens, UniProt P05556+P08648); assay: Solid phase ligand binding assay (ELISA); conditions: immobilized integrin, GST-fusion ligand in solution
Description: as §1, §2, §3

αvβ3 integrin = αvβ3 integrin (Homo sapiens, UniProt P05106+P06756); assay: Solid phase ligand binding assay (ELISA)
Description: as §1, §2, §3

αvβ5 integrin = αvβ5 integrin (Homo sapiens, UniProt P06756+P18084); assay: Solid phase ligand binding assay (ELISA); conditions: immobilized integrin, GST-fusion ligand in solution
Description: as §1, §2, §3

endothelial cells = assay: Adhesion of endothelial cells to wells coated with GST fusion proteins; type: cell-based, human; conditions: coating 1, 5, 10 nM; 45 min
Description: FIG. 10A: Affinity purified GST-fusion proteins were resolved on SDS±PAGE and stained with Coomassie Blue. FIG. 10B: Integrins were immobilized onto 96-well plates, and various GST-fusion proteins (ligands) were allowed to bind. Bound ligands were incubated with anti-GST antibodies, appropriate substrate added and the color intensity measured. OD values <0.05 were considered to be background binding. Data are expressed as mean±SD (n=4). FIG. 10C: Dose-dependent binding of αvβ3 integrin with recombinant GST-VCIP-RGD. FIGS. 10D-F: Representative photomicrographs of adhesion and spreading of endothelial cells replated onto dishes coated with either fibronectin (FIG. 9D), vitronectin (FIG. 9E) or GST-VCIP-RGD (FIG. 9F). […] Attached cells were stained, washed and absorbances of eluted dyes measured. […] Attached cells were stained, washed and absorbances of eluted dyes determined. […] Data are expressed as mean±S.D.; diamond, P<0.01; asterisk, P<0.001. […]
For adhesion blocking assays, endothelial cells were detached, washed with PBS and resuspended in M199 media containing 1 mM CaCl2 and 1 mM MgCl2 in the absence of serum or growth factors. […] Absorbances were measured at 540 nm.
Next, the capacity of VCIP-RGD to bind endothelial cell integrins was evaluated by determining the effect of GST-VCIP fusion proteins on cell adhesion and spreading.

αvβ3 and α5β1 integrins = assay: GST pull-down from [35S]Cys/Met-labelled endothelial cell lysates; type: binding, human; conditions: 10 μg per 3 mg lysate
[1] = system: Fak, Cas, Shc and paxillin; assay: Tyrosine phosphorylation of focal adhesion proteins in replated HUVECs; type: cell-based, human; conditions: HUVECs replated on coated dishes, 30 and 60 min
Description: Dishes were coated with either fibronectin (Fn, 10 μg/ml), vitronectin (Vn, 10 μg/ml) or affinity purified GST-VCIP-RGD or -RGE fusion proteins (10 and 20 nM). Endothelial cells were detached, washed and maintained in suspension (Sus) for 30 min, then allowed to re-attach for 30 or 60 min. Adherent cells were solubilized in RIPA buffer. Blots shown are representative of those obtained in at least three separate experiments. FIGS. 11A-E: Equal amounts of protein (˜1.0 mg) from clarified extracts were subjected to immunoprecipitation (IP) followed by immunoblotting using the indicated antibodies. FIG. 11F: Equal amounts of protein from total lysates (35 μg/lane) were subjected to immunoblotting with the anti-phospho-Erk½ antibody. FIG. 11G: The same membrane was stripped and re-probed with an anti-Erk½ antibody, showing that equivalent amounts of proteins used across the lanes.
Serum- and growth factor-starved HUVECs were allowed to attach and spread on dishes coated with optimal concentrations of fibronectin, vitronectin, GST-RGD-VCIP and GST-VCIP-RGE. Cells were harvested after 30 and 60 min at 37° C. Cells were then solubilized, clarified, pre-adsorbed, immunoprecipitated and subjected to immunoblotting with various antibodies as shown in FIG. 11. […] Cells that were replated onto GST-VCIP-RGE appeared rounded.

αvβ3 integrin, sequence (P06756 31-889 limits assumed): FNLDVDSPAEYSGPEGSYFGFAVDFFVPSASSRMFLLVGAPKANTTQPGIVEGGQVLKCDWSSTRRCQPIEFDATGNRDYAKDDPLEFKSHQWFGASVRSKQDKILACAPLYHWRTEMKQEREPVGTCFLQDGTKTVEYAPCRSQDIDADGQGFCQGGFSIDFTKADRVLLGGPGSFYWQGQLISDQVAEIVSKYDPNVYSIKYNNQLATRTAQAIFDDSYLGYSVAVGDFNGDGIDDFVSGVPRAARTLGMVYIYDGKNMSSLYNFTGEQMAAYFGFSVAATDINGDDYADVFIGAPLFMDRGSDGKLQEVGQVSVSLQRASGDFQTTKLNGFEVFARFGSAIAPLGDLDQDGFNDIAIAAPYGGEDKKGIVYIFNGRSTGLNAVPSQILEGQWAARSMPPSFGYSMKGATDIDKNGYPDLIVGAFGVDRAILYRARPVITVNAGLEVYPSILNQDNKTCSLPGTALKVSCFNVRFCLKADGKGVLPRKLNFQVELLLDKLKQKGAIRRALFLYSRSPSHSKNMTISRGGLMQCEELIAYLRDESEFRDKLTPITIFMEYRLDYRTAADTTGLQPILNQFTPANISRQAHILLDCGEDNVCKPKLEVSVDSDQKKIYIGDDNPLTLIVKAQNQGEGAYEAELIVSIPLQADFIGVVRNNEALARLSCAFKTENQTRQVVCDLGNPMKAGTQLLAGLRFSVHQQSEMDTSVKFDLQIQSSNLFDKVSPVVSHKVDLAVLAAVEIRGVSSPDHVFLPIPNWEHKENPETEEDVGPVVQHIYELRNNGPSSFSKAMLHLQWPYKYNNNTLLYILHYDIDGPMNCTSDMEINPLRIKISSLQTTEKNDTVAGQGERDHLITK
αvβ3 integrin, sequence (P06756 891-1048 limits assumed): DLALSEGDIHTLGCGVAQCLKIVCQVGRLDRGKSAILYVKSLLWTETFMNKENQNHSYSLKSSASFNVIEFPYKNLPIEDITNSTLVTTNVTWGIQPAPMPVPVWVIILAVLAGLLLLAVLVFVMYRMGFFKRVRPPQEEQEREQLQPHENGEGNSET
αvβ3 integrin, sequence (P05106 27-788): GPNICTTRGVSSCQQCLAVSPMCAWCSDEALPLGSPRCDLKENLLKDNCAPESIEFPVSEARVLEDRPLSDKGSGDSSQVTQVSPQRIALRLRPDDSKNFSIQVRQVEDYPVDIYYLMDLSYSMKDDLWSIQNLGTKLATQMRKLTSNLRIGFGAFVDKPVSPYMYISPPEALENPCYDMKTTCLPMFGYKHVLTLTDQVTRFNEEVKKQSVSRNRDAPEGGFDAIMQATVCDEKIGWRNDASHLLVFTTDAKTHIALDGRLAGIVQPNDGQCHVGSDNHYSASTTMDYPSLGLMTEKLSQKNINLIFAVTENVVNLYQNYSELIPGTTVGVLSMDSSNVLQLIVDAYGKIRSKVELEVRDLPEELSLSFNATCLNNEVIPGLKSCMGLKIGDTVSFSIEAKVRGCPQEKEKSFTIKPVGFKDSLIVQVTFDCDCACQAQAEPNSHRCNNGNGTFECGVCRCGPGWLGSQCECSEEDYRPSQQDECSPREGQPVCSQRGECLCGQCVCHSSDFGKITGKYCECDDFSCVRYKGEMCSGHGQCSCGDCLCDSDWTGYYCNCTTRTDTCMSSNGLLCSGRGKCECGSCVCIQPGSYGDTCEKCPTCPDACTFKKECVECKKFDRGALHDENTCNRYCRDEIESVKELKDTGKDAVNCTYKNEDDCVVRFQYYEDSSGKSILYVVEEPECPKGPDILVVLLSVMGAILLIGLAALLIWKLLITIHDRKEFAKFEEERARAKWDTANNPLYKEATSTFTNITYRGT
α5β1 integrin, sequence (P08648 42-894 limits assumed): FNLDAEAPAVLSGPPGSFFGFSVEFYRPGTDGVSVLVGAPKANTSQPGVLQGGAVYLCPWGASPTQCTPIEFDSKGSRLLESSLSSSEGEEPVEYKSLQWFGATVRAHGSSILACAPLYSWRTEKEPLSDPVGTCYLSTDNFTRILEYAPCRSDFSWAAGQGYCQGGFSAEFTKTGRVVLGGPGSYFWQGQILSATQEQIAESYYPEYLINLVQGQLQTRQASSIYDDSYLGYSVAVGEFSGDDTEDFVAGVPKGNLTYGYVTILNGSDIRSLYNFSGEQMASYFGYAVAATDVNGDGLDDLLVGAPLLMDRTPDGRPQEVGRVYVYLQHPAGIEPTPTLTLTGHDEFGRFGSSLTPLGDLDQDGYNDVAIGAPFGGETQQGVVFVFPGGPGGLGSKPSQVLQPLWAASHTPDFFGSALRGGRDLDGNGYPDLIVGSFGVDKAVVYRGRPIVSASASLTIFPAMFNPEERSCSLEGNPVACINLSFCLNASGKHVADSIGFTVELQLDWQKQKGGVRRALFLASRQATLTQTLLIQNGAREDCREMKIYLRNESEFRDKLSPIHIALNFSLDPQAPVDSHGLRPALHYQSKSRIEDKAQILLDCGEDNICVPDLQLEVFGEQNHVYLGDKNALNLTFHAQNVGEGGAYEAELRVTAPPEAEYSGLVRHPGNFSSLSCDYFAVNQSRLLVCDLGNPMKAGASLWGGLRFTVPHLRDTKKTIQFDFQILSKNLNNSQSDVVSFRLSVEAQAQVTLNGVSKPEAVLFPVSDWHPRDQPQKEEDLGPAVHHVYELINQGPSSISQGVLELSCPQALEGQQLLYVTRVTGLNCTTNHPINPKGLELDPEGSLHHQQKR
α5β1 integrin, sequence (P08648 895-1049 limits assumed): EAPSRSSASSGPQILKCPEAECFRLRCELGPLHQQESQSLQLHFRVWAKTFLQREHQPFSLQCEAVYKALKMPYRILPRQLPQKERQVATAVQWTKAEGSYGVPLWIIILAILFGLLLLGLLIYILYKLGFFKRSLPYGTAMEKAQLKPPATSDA
α5β1 integrin, sequence (P05556 21-798): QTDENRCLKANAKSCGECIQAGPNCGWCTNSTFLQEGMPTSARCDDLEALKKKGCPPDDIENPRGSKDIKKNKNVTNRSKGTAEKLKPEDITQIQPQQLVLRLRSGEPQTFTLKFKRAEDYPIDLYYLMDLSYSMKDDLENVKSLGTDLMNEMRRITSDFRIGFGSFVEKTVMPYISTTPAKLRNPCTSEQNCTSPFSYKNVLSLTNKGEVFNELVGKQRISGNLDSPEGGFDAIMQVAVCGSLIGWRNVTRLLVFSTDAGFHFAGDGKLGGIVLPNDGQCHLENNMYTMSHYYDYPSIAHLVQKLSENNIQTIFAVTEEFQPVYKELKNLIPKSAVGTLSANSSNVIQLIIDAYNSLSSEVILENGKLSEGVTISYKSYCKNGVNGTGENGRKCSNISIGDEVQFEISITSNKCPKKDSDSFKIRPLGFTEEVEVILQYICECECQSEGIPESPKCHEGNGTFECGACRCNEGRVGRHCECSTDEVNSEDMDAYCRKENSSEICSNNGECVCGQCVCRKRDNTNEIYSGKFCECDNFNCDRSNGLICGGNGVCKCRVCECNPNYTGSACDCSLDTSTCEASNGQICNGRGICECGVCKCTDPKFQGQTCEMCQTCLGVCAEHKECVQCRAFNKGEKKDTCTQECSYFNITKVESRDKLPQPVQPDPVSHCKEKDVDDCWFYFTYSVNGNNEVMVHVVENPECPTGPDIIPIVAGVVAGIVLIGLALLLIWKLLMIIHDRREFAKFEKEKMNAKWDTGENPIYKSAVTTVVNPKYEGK
α2β1 integrin, sequence (P17301 30-1181): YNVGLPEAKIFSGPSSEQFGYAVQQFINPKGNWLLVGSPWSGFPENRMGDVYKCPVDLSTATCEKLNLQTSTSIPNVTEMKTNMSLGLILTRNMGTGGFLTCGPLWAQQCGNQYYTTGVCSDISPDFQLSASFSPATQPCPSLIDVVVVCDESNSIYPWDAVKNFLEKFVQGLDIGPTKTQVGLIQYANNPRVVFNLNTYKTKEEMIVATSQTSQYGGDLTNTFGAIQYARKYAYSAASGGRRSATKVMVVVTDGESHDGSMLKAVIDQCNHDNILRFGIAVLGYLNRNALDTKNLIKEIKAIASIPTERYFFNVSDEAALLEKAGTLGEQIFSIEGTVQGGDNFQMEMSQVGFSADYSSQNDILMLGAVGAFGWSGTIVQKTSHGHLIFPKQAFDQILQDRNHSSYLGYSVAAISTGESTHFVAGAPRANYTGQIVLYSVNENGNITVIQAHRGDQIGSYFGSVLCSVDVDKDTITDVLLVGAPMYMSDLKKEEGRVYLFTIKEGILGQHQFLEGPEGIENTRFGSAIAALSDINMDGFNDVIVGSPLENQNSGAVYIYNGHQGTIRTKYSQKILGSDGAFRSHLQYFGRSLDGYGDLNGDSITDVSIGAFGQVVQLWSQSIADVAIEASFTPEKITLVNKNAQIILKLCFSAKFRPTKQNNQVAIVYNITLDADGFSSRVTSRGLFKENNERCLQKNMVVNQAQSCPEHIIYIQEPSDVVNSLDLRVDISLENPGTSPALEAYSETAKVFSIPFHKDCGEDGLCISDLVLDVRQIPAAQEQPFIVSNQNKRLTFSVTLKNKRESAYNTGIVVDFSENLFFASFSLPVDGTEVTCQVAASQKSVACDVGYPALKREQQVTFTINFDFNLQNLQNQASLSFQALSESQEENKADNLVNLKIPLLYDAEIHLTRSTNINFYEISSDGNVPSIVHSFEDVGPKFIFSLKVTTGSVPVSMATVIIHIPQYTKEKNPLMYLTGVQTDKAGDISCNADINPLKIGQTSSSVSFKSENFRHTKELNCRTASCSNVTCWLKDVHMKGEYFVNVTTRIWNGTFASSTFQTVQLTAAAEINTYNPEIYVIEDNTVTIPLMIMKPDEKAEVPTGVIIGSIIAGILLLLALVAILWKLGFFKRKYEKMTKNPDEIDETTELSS
α2β1 integrin, sequence (P05556 21-798): as the sequence (P05556 21-798) above

GST-VCIP-RGD: recombinant GST fusion of 49 amino acid residues (145-194) of VCIP second extracellular loop, wild-type RGD (DIAKVSIGRLRPHFLSVCNPDFSQINCSEGYIQNYRCRGDDSKVQEARKS; cysteine pairing not given here; also: GST fusion)
interaction with α2β1 integrin (α2β1 integrin): did not
interaction with α5β1 integrin (α5β1 integrin): interacted
dose-dependence of binding to αvβ3 integrin (αvβ3 integrin; FIG. 10C): bound to αvβ3 integrin in a dose-dependent manner
interaction with αvβ3 integrin (αvβ3 integrin; immobilized integrin, GST-fusion ligand in solution): interacted
interaction with αvβ5 integrin (αvβ5 integrin): did not
adhesion of endothelial cells to coated wells (endothelial cells): comparable to that observed in wells coated with vitronectin and fibronectin substrates
integrins present in pull-down complex (αvβ3 and α5β1 integrins): contained anti-αvβ3 and -α5β1 immunoreactivities
tyrosine phosphorylation of Fak, Cas, Shc and paxillin [1]: comparable to those induced by fibronectin and vitronectin
tyrosine phosphorylation of Fak, Cas, Shc and paxillin ([1]; listed as VCIP-RGD): induced tyrosine phosphorylation of Fak, Cas, Shc and paxillin at both 30 and 60 min
